Measurements as given in patent US20010009766A1.
pKi: −log10 of the molar value.

Key:
[1] = target: human GALR3 receptor (human) (UniProt O60755); experiment: cell-based or functional assay
rat GALR3 receptor (rat) [2] = experiment: apparent binding affinity, rat GalR3 in COS-7 (repeats Table 4)
rat GALR3 receptor (rat) [3] = experiment: displacement of porcine 125I-galanin, membranes of stable cell line 293-rGalR3-105
rat GALR1 receptor (rat) = experiment: displacement of porcine 125I-galanin, membranes of transiently transfected COS-7 cells
rat GALR3 receptor (rat) [4] = experiment: as above
rat GALR3 receptor (rat) [5] = experiment: displacement of porcine 125I-galanin, rat GalR3 transiently expressed in COS-7 membranes
[6] = target: human GALR3 receptor (human) (UniProt O60755); experiment: displacement of porcine 125I-galanin, membranes of stable LM(tk-) line L-hGalR3-228
rat GALR2 receptor (rat) = rat GALR2 receptor (rat) (UniProt O08726); experiment: displacement of porcine 125I-galanin, membranes of transiently transfected COS-7 cells
Chain of rat GALR2 receptor (rat) (O08726 whole entry): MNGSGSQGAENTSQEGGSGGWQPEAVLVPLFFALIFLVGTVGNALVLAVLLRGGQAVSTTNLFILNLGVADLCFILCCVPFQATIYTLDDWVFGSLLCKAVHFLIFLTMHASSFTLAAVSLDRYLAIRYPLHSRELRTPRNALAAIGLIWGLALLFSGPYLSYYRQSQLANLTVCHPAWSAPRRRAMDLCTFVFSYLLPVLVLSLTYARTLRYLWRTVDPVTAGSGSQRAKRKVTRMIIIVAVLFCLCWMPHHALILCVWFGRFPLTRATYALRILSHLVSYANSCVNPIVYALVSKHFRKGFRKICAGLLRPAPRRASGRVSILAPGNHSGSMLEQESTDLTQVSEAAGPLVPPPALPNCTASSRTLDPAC

Chain of human GALR3 receptor (human) (O60755 whole entry, form in doubt): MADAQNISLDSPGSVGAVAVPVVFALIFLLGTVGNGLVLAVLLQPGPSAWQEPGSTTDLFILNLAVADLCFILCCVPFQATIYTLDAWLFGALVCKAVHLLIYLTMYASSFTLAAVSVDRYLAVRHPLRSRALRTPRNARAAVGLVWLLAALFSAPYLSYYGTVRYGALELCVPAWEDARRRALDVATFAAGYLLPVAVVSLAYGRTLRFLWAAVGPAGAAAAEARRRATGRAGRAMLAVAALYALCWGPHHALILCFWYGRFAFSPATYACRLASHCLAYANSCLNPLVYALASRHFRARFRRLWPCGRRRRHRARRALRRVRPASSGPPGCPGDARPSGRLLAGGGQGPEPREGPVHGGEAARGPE

Row | Substance | Oocyte EC50 (stimulation of GIRKs) [1] [nM] | pKi (rat GALR3 receptor (rat) [2]) | pKi (rat GALR3 receptor (rat) [3]) | pKi (rat GALR1 receptor (rat)) | pKi (rat GALR3 receptor (rat) [4]) | pKi (rat GALR3 receptor (rat) [5]) | pKi [6] | pKi (rat GALR2 receptor (rat))
1 | D-Trp2-galanin 1-16 (peptide) |  |  |  |  | < 6.00 |  |  | 
2 | D-Trp2-galanin 1-29 (peptide) |  |  |  |  | < 6.00 |  |  | 
3 | M35 (peptide) |  |  | 8.49 | 9.48 | 8.17 | 8.43 | 8.11 | 9.24
4 | galantide (peptide) |  |  |  | 8.02 | 7.74 | 8.05 |  | 8.70

Continued, values first:

Row | Oocyte EC50 (stimulation of GIRKs) [1] [nM] | pKi (rat GALR3 receptor (rat) [2]) | pKi (rat GALR3 receptor (rat) [3]) | pKi (rat GALR1 receptor (rat)) | pKi (rat GALR3 receptor (rat) [4]) | pKi (rat GALR3 receptor (rat) [5]) | pKi [6] | pKi (rat GALR2 receptor (rat)) | Substance
5 | 343 | 7.64 | 8.02 | 7.80 | 7.17 | 7.64 |  |  | C7 (peptide)
6 | 1910 |  |  |  |  |  |  |  | galanin -7 to +29 (peptide)
